Laboratory results: patent publication US20200354468A1 (US Dept. of Health and Human Services, published 2020)

B1: anti-CD133 monoclonal antibody mAb 47-10 (antibody, V domains shown)
VH: QSVEESGGRLVTPGTPLTLTCTVSGIDLNNYNMQWVRQAPGKGLEWIGATFGSDSIYYATWAKGRFTISKTSTTVDLKMTSLTTEDTATYFCARGGLWGPGTLVTVSS
VL: AQVLTQTASPVSAAVGATVTINCQSSQSVYNNNYLAWFQQKPGQPPKLLIYRASTLASGVSSRFKGSGSGTQFALTISGVQCDDAGTYYCQGEFSCDSADCAAFGGGTEVVVKG
notes: Rabbit IgG from a hybridoma, cloned and made recombinantly in HEK293 cells; also called clone 47-10; mAb subclone 47-10
B2: anti-CD133 monoclonal antibody mAb 133-3 (antibody, V domains shown)
VH: QSVEESGGRLVTPGTPLTLTCTVSGFSLSRYAMSWVRQAPGKGLDWIGYIDIGGGAYYASWAKGRFTISETSTTVYLKVNSPTTEDTATYFCARGVANSDIWGPGTLVTVSS
VL: ALVMTQTPSPVSAAVGGTVTINCQSSQSVFNNKWLSWYQQKPGQPPKLLIYFVSTLASGVPSRFKGSGSGTQFTLTISGVQCDDAATYYCQGSDYSSGWYSPFGGGTEVVVEG
notes: Rabbit IgG from a hybridoma, cloned and made recombinantly in HEK293 cells

Columns and labels:
[1] = molecular target: T1, Recombinant CD133 domain B polypeptide (Homo sapiens, UniProt O43490 515-745); experiment: direct ELISA, recombinant domain coated
T1 construct: also called CD133B; recombinant CD133 Extracellular Domain B
T1 sequence: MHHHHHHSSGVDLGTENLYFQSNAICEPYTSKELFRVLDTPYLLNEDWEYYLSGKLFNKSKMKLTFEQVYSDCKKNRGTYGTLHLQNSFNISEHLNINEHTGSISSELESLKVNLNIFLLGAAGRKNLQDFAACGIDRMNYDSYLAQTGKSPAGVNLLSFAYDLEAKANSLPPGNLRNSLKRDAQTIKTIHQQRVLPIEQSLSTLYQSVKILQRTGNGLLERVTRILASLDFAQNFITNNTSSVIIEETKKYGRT
Procedure: (§1) The cDNAs of IgG heavy and light chains were amplified by polymerase chain reaction (PCR) and cloned into a mammalian expression vector. The recombinant monoclonal antibody was then transiently expressed using a HEK293 cell system. The expressed recombinant antibodies were then tested by ELISA against CD133 immunogenic polypeptides A and B and recombinant domain A and B polypeptides. […] The testing confirmed the specificity of the mAbs. The cDNA was sequenced.

[2] = molecular target: T2, BSA-conjugated CD133 immunogenic polypeptide B (Homo sapiens, lysine added as C-terminal residue for conjugation; conjugated to BSA); experiment: direct ELISA, BSA-conjugated peptide coated
T2 construct: The peptide stood in the assays as a BSA conjugate; the text gives 615-643; also called B-BSA; Pep B
T2 peptide: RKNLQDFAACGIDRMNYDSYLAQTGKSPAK

[3] = molecular target: T3, Recombinant CD133 domain A polypeptide (Homo sapiens, UniProt O43490 180-400, limits assumed); experiment: direct ELISA, recombinant domain coated
T3 construct: also called CD133A; recombinant CD133 Extracellular Domain A
T3 sequence: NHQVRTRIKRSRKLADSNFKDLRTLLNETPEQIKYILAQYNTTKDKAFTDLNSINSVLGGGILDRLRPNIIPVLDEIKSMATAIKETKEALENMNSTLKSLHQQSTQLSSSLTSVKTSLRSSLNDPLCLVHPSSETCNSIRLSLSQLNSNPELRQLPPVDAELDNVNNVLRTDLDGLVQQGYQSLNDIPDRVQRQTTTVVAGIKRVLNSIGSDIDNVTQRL
Procedure: as §1

[4] = molecular target: T4, BSA-conjugated CD133 immunogenic polypeptide A (Homo sapiens, N-terminal lysine used for conjugation; conjugated to BSA); experiment: direct ELISA, BSA-conjugated peptide coated
T4 construct: The peptide stood in the assays as a BSA conjugate; also called A-BSA; PepA
T4 peptide: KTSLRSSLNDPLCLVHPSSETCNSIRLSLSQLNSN

[5] = molecular target: T1, Recombinant CD133 domain B polypeptide; experiment: subclone screening by ELISA and Western blot

Row | Binder | binding result [1] | binding result [2] | binding result [3] | binding result [4] | binding result [5]
1 | B1 | no binding | no binding |  |  | 
2 | B2 |  | binds | no binding | no binding | binds
